According to patent publication US20040235717A1, “Suppression of androgen receptor transactivation through new pathways to ar and ar coactivators and repressors” (priority 2001, published 2004):

Columns and labels:
[1] = test system: PSA mRNA expression; experiment: PSA mRNA expression in LNCaP cells, Northern blot; format: cell-based; conditions: presence of androgen
[2] = target: T1, AR-Smad3 interaction (Homo sapiens, UniProt P10275); experiment: GST-Smad3 pull-down of AR with added Smad4; format: binding; conditions: GST-Smad3, [35S]-AR, purified Smad4 added
T1 construct: in vitro transcribed/translated [^35S]-labeled full-length AR and GST-Smad3 (2 μg); made in house; host or cells: AR: TNT-coupled reticulocyte lysate (Promega); GST-Smad3: E. coli BL21 (DE3) pLysS
T1 sequence (P10275 1-920): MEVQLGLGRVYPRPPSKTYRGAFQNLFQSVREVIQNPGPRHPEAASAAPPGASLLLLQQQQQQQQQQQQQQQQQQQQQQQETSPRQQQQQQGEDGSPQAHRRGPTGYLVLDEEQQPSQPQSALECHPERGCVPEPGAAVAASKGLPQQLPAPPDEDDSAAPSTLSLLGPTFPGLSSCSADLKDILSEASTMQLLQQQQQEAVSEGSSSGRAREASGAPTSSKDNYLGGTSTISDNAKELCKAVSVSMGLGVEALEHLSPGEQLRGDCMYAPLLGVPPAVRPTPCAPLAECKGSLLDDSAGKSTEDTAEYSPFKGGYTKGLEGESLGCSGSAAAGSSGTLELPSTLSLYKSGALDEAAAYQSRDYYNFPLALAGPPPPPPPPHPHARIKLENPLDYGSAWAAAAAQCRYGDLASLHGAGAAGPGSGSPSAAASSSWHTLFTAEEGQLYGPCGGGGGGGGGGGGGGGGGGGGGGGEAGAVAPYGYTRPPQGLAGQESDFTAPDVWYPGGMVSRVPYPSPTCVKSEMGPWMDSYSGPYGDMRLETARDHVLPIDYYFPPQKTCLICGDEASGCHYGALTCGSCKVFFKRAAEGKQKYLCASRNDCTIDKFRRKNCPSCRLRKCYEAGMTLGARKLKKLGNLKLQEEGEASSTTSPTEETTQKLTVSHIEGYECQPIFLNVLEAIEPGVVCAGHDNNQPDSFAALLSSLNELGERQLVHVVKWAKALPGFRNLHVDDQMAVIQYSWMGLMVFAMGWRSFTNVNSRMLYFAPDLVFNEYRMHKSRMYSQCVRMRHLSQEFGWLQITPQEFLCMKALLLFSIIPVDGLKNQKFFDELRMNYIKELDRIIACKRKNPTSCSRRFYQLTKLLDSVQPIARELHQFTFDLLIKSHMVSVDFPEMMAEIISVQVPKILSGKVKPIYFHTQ
Protocol: 34. […] Complex bound to GST columns was subjected to SDS-PAGE and autoradiography. […] (C) The indicated amounts of purified Smad4 proteins were added to fixed volumes of in vitro transcribed/translated [^35S]-labeled full-length AR and GST-Smad3 (2 μg) to test for interaction. Bands were detected using a phosphoimager. A representative blot of three independent experiments is shown.
335. Fusion proteins of GST-Smad3 and GST-AR, and GST protein alone were obtained by transforming expressing plasmids into BL21 (DE3) pLysS strain competent cells followed with 1 mM IPTG induction. GST-fusion proteins then were purified by Glutathione-Sepharose™ 4B (Pharmacia). The wtAR and deletion mutant AR (mtAR) proteins labeled with [^35S] were generated in vitro using the TNT-coupled reticulocyte lysate system (Promega). […] The bound proteins were separated on an 8% SDS-polyacrylamide gel and visualized by using autoradiography.

[3] = test system: AR transactivation; experiment: AR transactivation with Smad3/Smad4, CAT reporters in PC3-AR2, PC-3 and LNCaP cells; format: cell-based, human; conditions: PC3-AR2, MMTV-CAT
Protocol: 32. […] LNCaP cell were transfected with Smad3 or Smad4 expression vector instead of PC-3(AR)2 cells in experiments otherwise identical with those in A (B), PC-3(AR)2 cells stably transfected with AR were over-expressed with the indicated amounts of Smad3 or Smad4 or SRC-1. 3 μg of MMTV-CAT was used as a reporter plasmid in all experiments. All values represent the averages±SD of four independent experiments. […] PSA expression level was determined by Northern blotting. The probe was obtained from exon 1 of the PSA gene and labeled with [α-^32P] dCTP. A β-actin probe was used as a control for equivalent mRNA loading. (C, Table 1) The RNA samples from (A) were reverse transcribed to cDNAs and all of the samples were subjected to real-time CR using an ABI Prism 7700 Sequence Detection System (Perkin-Elmer Applied bio systems). PCR was performed using the SYBR Green PCR Core Reagents kit (Perkin-Elmer Applied Bio systems). PSA and β-actin forward, reverse primers concentrations were 2.5 μM. To reduce variability between replicates, PCR premixes which contained all reagents except for total RNA were prepared and aliquoted into 1.5 ml microfuge tubes. Specific PCR amplification products were detected by the fluorescent double-stranded DNA-binding dye SYBR Green core reagent kit. Experiments were performed with triplicates for each data point.
37. […] (A) PC3-AR2, SW480·C7, and PC-3 cells were transiently co-transfected with either MMTV-CAT, PSA-CAT, 5XARE-CAT, or (TAT)2-CAT (3 μg), in the presence of AR, Smad3, Smad4 or Smad3/Smad4 as indicated. Each CAT activity is presented relative to the transactivation observed in the absence of Smad3. All values represent the mean±SD of three independent experiments.
333. Human prostate cancer DU145 cells and PC-3 cells were maintained in Dulbecco's Minimum Essential Medium containing penicillin (25 U/ml), streptomycin (25 μg/ml), and 5% fetal calf serum. Transfections were performed using the calcium phosphate precipitation method and cells were harvested after 24 h for the chloramphenicol acetyltransferase (CAT) assay, as described previously (Kang, et al. (1999) J. Biol. Chem. 274, 8570-8576). The CAT activity was visualized and quantitated by STORM 840 (Molecular Dynamics). At least three independent experiments were carried out in each case. The SW480·C7 cells and PC-3(AR)2 cells are the gifts from Dr. Eric J. Stanbridge and Dr. T. J. Brown

[4] = test system: AR transactivation; experiment: AR transactivation, MMTV-luc / (ARE)4-luc luciferase reporter assay; format: cell-based; conditions: LNCaP
[5] = test system: Akt; experiment: Akt activity in LNCaP cells, Western blot with phospho-Akt (Ser473) antibody; format: cell-based; conditions: LNCaP
Protocol: 18. […] (A) Akt suppressed androgen/AR-induced p21 promoter activity. […] (B) Androgen/AR-induced PC-3(AR)6 apoptosis and p21 protein expression was blocked by Akt PC-3(AR)6 was transfected with pCDNA3, cAkt, or dAkt, as indicated, for 16 h. […] (C) AR-induced p21 protein expression was enhanced by dAkt in LNCaP cells. […] LNCaP stable transfection with dAkt was confirmed by western blot assay using phospho-Akt (Ser473) antibody. […] TPA was then added for another 24 h and cell apoptosis was determined by TUNEL assay. […] IGF-1 was added for another 30 min, followed by 10 nM TPA treatment for another 24 h. The apoptosis was determined by TUNEL assay. The data are means±s.d. from three independent experiments.
(§1) 31. […] (D) The LNCaP cells were transfected with plasmids as indicated for 16 h, and the medium was changed to 0.1% CDS media for 2 days. The cell apoptosis was determined by TUNEL assay (E) The LNCaP cells were transfected with plasmids as indicated for 16 h, harvested, and the cell extracts were subjected to SDS-PAGE. The Akt activity was determined by Western blotting using phospho(S473)-Akt antibody. (F) The U87MG cells were transfected with plasmids as indicated for 16 h, and the medium was changed 0.1% CDS media for 2 days. The cell apoptosis was determined by TUNEL assay. Data for luciferase activity and apoptosis are means±s.d. from three independent experiments.

[6] = test system: interaction between AR and PTEN; experiment: Co-immunoprecipitation of AR and PTEN in CWR22 cells; format: cell-based, human
Protocol: 28. […] (C) The cell lysates from the CWR22 were immunoprecipitated by anti-PTEN antibody, followed by Western blot analysis. […] The cells were harvested for co-immunoprecipitation. Lane 1: 10% input; Lane 2: IP by non-immune IgG; Lane 3: IP by anti-AR antibody; Lane 4: The PTEN protein was depleted from the cell lysates by anti-PTEN antibody before IP by anti-AR antibody; Lane 5: IP by anti-PTEN antibody. (E) CWR22 cells were transfected with vector or Akf for 48 h and the cells were harvested for immunoprecipitation assay.
314. The immunoprecipitation and Western blotting were performed as previously described (Qiu et al. (1998) Nature 393, 83-5). The cell extracts (1 mg) were immunoprecipitated with the indicated antibody. The immunocomplexes were subjected to 8% SDS-PAGE and immunoblotted with the indicated antibody.

[7] = test system: AR protein levels; experiment: AR protein (Western blot) and AR mRNA (Northern blot) levels; format: cell-based; conditions: LNCaP; 10 nM DHT
[8] = test system: LNCaP cells; experiment: PTEN-induced apoptosis in LNCaP cells, TUNEL assay; format: cell-based
[9] = test system: AR transactivation; experiment: AR transactivation, (ARE)4-luc in CWR22 cells; format: cell-based, human
Protocol: as §1
312. […] The cells were lysed and the luciferase activity was detected by the dual luciferase assay according to standard procedures.

[10] = test system: U87MG cells; experiment: PTEN-induced apoptosis in AR-negative U87MG cells, TUNEL assay; format: cell-based
Protocol: as §1
311. For the apoptosis assay, the cells were transfected with plasmids for 24 h and grown in 0.1% charcol-stripped serum (CDS) media. The apoptosis was determined 2 days after transfection using the TUNEL assay according to the standard procedures (Oncogene). At least 200 cells were scored for each sample and data are means±s.d. from three independent experiments.

B1: Smad4: candidate tumor suppressor, shared component of Smad signaling (protein)
chain: MDNMSITNTPTSNDACLSIVHSLMCHRQGGESETFAKRAIESLVKKLKEKKDELDSLITAITTNGAHPSKCVTIQRTLDGRLQVAGRKGFPHVIYARLWRWPDLHKNELKHVKYCQYAFDLKCDSVCVNPYHYERVVSPGIDLSGLTLQSNAPSSMMVKDEYVHDFEGQPSLSTEGHSIQTIQHPPSNRASTETYSTPALLAPSESNATSTANFPNIPVASTSQPASILGGSHSEGLLQIASGPQPGQQQNGFTGQPATYHHNSTTTWTGSRTAPYTPNLPHHQNGHLQHHPPMPPHPGHYWPVHNELAFQPPISNHPAPEYWCSIAYFEMDVQVGETFKVPSSCPIVTVDGYVDPSGGDRFCLGQLSNVHRTEAIERARLHIGKGVQLECKGEGDVWVRCLSDHAVFVQSYYLDREAGRAPGDAVHKIYPSAYIKVFDLRQCHRQMQQQAATAQAAAAAQAAAVAGNIPGPGSVGGIAPAISLSAAAGIGVDDLRRLCILRMSFVKGWGPDYPRQSIKETPCWIEIHLHRALQLLDEVLHTMPIADPQPLD
Effect on androgen-induced PSA mRNA expression [1]: slight suppression of PSA mRNA expression
AR-Smad3 interaction [2]: decrease this AR-Smad3 interaction in a dose-dependent manner
Effect on Smad3-enhanced AR transactivation [3]: significantly repressed
Effect on androgen-activated AR transactivation ([3]; 10^−8 M DHT): slightly suppressed

B2: ARf: the interaction domain within AR (aa; 483-651) (protein)
chain: YTRPPQGLAGQESDFTAPDVWYPGGMVSRVPYPSPTCVKSEMGPWMDSYSGPYGDMRLETARDHVLPIDYYFPPQKTCLICGDEASGCHYGALTCGSCKVFFKRAAEGKQKYLCASRNDCTIDKFRRKNCPSCRLRKCYEAGMTLGARKLKKLGNLKLQEEGEASSTTS
modifications: left off: small tags and cut ends
Effect on PTEN suppression of AR transactivation [4]: dramatically reduce
Effect on PTEN-mediated inhibition of Akt activity [5]: little influence
Interaction between AR and PTEN [6]: disrupted the interaction between AR and PTEN
Effect on PTEN-mediated promotion of AR degradation [7]: dramatically reduce
Effect on PTEN-induced apoptosis [8]: markedly reduced PTEN-induced apoptosis
Effect on PTEN suppression of AR transactivation [9]: significantly reduce PTEN suppressive effect on AR transactivation
Effect on PTEN-induced apoptosis [10]: only marginal effects

B3: PTEN-#1: PTEN fragment (aa, 1-107) that does not interact with AR (protein)
chain: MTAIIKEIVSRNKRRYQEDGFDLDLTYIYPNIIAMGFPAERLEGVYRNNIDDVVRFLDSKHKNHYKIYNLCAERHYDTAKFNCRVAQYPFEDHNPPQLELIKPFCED
modifications: left off: a dimerising Fc or GST
Effect on PTEN functions (AR degradation, AR transactivation) [4]: only marginal effect
